Laboratory results published in patent US10040829B2.

Legend:
hASCT1 receptor (human) = hASCT1 receptor (human) (UniProt P43007); assay: in vivo binding in SCID mice grafted with XChASCT1 cells; anti-RGS His and anti-mouse FITC, IF reading
[1] = target: hASCT2 receptor (type 2 sodium-dependant neutral amino acid receptor-transporter) (human) (UniProt Q15758); assay: in vivo binding in SCID mice grafted with XChASCT2 cells; anti-RGS His and anti-mouse FITC, IF reading

Substance: soluble HERV-W Env protein of Example 7 (293T cells transfected with the plasmid 460, envelope-spacer-His6)
- NF/NT, Mean (fluorescent cells out of 77 cells) (hASCT1 receptor (human)): 24
- NF/NT, Mean (fluorescent cells out of 57 cells) [1]: 23
